Test results published in paper PMC12343972 (Nature Communications, 2025).
Numbering of substitutions follows the chain as printed.

What was measured:
Rad50-R1201A = target: T1, Rad50-R1201A (Saccharomyces cerevisiae, UniProt P12753 1-1312, R1201A); assay: EMSA
T1 sequence: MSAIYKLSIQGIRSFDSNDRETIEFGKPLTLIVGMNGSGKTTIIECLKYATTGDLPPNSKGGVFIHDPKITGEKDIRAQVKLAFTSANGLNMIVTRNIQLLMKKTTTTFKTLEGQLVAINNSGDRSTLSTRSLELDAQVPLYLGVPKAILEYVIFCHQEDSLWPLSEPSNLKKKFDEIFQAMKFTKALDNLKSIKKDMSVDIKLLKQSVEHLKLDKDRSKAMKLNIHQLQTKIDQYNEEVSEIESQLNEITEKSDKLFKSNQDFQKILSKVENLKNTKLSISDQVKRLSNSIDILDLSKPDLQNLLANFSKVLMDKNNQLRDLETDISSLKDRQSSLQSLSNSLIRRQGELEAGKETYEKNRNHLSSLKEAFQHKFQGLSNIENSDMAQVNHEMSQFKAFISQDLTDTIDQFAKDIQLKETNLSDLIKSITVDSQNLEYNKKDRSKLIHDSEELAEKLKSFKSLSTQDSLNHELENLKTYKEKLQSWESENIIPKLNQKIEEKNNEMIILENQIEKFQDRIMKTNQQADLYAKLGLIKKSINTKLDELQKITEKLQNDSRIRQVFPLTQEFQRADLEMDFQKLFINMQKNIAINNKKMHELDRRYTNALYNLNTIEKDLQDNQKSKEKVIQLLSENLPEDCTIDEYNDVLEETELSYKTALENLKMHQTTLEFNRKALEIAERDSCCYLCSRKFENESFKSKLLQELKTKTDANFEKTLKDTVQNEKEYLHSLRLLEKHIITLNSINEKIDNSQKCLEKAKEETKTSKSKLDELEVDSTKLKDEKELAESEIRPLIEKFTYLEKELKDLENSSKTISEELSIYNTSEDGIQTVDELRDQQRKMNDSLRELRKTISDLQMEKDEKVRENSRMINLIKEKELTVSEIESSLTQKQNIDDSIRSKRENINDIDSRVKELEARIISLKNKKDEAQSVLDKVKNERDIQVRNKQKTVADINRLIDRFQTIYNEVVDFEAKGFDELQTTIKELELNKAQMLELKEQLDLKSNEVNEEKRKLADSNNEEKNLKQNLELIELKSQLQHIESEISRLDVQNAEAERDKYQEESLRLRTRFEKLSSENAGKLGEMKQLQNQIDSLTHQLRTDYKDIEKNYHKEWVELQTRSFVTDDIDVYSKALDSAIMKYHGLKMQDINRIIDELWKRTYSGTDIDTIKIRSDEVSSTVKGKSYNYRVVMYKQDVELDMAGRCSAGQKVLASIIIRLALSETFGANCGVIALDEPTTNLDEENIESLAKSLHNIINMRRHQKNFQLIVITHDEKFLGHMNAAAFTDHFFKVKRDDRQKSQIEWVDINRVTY

Rad50 WT = target: T2, Rad50 WT (Saccharomyces cerevisiae, UniProt P12753 1-1312); assay: EMSA
T2 sequence: T1 sequence with A1201R

B1: 83-mer dsDNA (EMSA) (dsDNA)
DNA 1: TTGATAAGAGGTCATTTTTGCGGATGGCTTAGAGCTTAATTGCTGAATCTGGTGCTGTAGCTCAACATGTTTTAAATATGCAA
DNA 2: TTGCATATTTAAAACATGTTGAGCTACAGCACCAGATTCAGCAATTAAGCTCTAAGCCATCCGCAAAAATGACCTCTTATCAA
B1: binds (Rad50-R1201A); binds (Rad50 WT).
